T1: biotinylated hSEMA4D ECD-His (human) (UniProt Q92854)
T1 sequence (chain, biotinylated with Biotin-X-X-NHS at a molar ratio of 8,1; sites not stated): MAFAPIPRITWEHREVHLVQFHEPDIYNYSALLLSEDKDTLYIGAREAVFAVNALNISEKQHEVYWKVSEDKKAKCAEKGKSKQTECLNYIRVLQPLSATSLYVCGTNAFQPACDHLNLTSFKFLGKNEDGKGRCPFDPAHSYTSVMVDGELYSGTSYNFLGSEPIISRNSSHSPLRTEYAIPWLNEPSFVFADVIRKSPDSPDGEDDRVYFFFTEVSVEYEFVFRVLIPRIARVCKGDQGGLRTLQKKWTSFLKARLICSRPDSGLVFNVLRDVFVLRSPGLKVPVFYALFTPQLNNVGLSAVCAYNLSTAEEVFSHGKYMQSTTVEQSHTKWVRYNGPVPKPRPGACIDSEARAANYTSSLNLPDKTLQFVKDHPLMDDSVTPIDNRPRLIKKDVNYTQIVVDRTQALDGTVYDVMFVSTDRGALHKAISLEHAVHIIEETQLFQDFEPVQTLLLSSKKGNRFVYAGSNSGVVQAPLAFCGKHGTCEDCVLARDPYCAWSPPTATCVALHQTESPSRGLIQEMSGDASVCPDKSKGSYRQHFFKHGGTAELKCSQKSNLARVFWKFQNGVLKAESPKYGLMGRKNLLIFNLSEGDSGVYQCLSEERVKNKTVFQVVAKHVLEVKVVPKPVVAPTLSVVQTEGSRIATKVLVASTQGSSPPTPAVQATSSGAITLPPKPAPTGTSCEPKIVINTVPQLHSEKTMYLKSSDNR

T2: human SEMA4D, full length, on CHO-K1 cells (CHO-K1 hSEMA4D) (human) (UniProt Q92854)
T2 sequence (looked up): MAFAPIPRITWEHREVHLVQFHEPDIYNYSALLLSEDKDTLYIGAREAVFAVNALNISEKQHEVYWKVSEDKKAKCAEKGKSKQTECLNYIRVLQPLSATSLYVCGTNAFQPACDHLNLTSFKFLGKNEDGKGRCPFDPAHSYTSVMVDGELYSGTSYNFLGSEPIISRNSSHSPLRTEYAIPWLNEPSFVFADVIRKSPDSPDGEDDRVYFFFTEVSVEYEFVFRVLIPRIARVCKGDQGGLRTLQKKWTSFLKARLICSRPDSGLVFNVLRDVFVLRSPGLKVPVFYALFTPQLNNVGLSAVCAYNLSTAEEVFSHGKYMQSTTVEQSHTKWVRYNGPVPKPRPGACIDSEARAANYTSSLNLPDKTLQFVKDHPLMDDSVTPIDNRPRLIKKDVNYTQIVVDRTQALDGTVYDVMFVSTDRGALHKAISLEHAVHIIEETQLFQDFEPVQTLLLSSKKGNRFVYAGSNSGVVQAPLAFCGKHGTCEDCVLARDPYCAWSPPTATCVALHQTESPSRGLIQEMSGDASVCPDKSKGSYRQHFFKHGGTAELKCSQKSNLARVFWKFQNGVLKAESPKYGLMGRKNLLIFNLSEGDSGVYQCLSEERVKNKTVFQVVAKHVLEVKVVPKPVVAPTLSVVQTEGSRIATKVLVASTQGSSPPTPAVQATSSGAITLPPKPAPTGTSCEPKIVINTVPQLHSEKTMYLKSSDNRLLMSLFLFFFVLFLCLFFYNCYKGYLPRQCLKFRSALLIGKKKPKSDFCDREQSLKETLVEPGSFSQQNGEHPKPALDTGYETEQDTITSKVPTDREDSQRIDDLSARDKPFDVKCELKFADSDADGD

B1: 2D5-b1-3D9 scFv (periplasmic extract) (scFv, part only; not given: linker, domain order, tags, V domains shown, not shown: another chain or arm of the molecule; large carriers; small tags and cut ends)
VH: QVTLRESGPALVKPTQTLTLTCTFSGFSLTTTGVAVTWIRQPPGKALEWLALIDWDDDKYYSTSLKTRLTISKDTSKNQVVLTMTNMDPVDTATYYCARIASGDSGGYFADWGQGTLVTVSS
VL: SYELTQPPSVSVSPGQTASITCSGDKLDDKYVYWYQQKPGQSPVLVIYMDNKRKSGIPERFSGSNSGNTATLTISGTQAMDEADYYCQAWESSSDQYVFGTGTKVTVL
B2: VX15 (antibody, INN chains, looked up, V domains shown)
VH: QVQLVQSGAEVKKPGSSVKVSCKASGYSFSDYYMHWVRQAPGQGLEWMGQINPTTGGASYNQKFKGKATITVDKSTSTAYMELSSLRSEDTAVYYCARYYYGRHFDVWGQGTTVTVSS
VL: DIVMTQSPDSLAVSLGERATINCKASQSVDYDGDSYMNWYQQKPGQPPKLLIYAASNLESGVPDRFSGSGSGTDFTLTISSLQAEDVAVYYCQQSNEDPYTFGQGTKLEIK

Assays:
[1] = molecular target: T1, biotinylated hSEMA4D ECD-His (human); assay: BLI (Octet-Red), scFv in bacterial periplasmic extract; off-rate ranking
[2] = molecular target: T2, human SEMA4D, full length, on CHO-K1 cells (CHO-K1 hSEMA4D) (human); assay: competitive FACS, CHO-K1 hSEMA4D cells; unlabelled Ab 6 ug/mL first, competitor Alexa 488-2D5 0.67 ug/mL
[3] = molecular target: T2, human SEMA4D, full length, on CHO-K1 cells (CHO-K1 hSEMA4D) (human); assay: competitive FACS, CHO-K1 hSEMA4D cells; unlabelled Ab 6 ug/mL first, competitor Alexa 488-5D8 0.67 ug/mL
[4] = molecular target: T2, human SEMA4D, full length, on CHO-K1 cells (CHO-K1 hSEMA4D) (human); assay: competitive FACS, CHO-K1 hSEMA4D cells; unlabelled Ab 6 ug/mL first, competitor Alexa 488-VX15 0.67 ug/mL

Binder | fold reduction of off-rate against the wild type [1] [times] | inhibition rate (%) [2] [%] | inhibition rate (%) [3] [%] | inhibition rate (%) [4] [%]
B1 | 45 |  |  | 
B2 |  | 96 | 98 | 97
